Assay results published in patent publication US20170298146A1 (MODIQUEST B V, published 2017).
Non-standard residues stand in square brackets, D forms with d. No end group written: not given here. Cit = NC(=O)NCCC[C@H](N)C(=O)O

Legend:
[1] = biological target: T1, human recombinant histone H2A (human); assay: ELISA, 0.08 ug/well
T1 construct: Non-deiminated
Experimental: (§1) CFC-1 and CFC-0 were coated at the same concentration and served as positive and negative controls, respectively, for specific anti-citrulline reactivity and as coating controls. Non-coated wells were used to test for aspecific binding of the antibodies. […] Detection of bound anti-citrulline antibodies was performed by incubating the wells with rabbit-anti-human-HRP (1:2000) for one hour at RT followed by incubation with TMB substrate. The resulting OD (y-axis) is a measure for antibody binding. H1=recombinant histone 1; H1/p2=huPAD2 recombinant histone 1; H1/p4=huPAD4 recombinant histone 1 and so forth (x-axis).

[2] = biological target: T2, huPAD2 deiminated human recombinant histone H2A (human); assay: ELISA, 0.08 ug/well
T2 construct: also called H2A/p2
Experimental: as §1

[3] = biological target: T3, huPAD2 deiminated human recombinant histone H3 (human); assay: ELISA, 0.08 ug/well
T3 construct: also called H3/p2
Experimental: as §1

CFC-1 [4] = biological target: T4, CFC-1; assay: ELISA, 0.08 ug/well
T4 construct: Positive control for anti-citrulline reactivity; also called cfc1 XG
Experimental: as §1

CFC-1 [5] = biological target: T4, CFC-1; assay: peptide ELISA, 2 ug/well
Experimental: as §1, with “Biotin and citrulline-containing peptides derived from histone 2A were immobilized on NEUTRAVIDIN®-coated 96-well ELISA plates (0.3 μg/well). CFC-1” for “CFC-1”, “controls respectively” for “controls, respectively,”, “binding.” for “binding. H1=recombinant histone 1; H1/p2=huPAD2 recombinant histone 1; H1/p4=huPAD4 recombinant histone 1 and so forth (x-axis).”
(§2) Ninety-six-well ELISA plates were coated with NEUTRAVIDIN® (0.1 μg/well) by overnight incubation at 4° C. Wells were washed five times with PBS-TWEEN®-20 (PBS-T) and blocked by a one-hour incubation with PBS-T+1% Bovine serum albumin (BSA) at room temperature (RT). After five more washes with PBS-T, wells were incubated for one hour at RT with histone-derived citrulline and biotin-containing peptides (0.3 μg/well). […] Wells were washed five times with PBS-T and incubated with rabbit-anti-human-HRP (1:2000) for one hour at RT followed by five washes with PBS-T and three wash steps with PBS. Wells were incubated for five minutes with TMB substrate before stopping the reaction with 2 M H₂SO₄. Optical density was measured by 450 nm and is a measure for the affinity of the antibodies used.

[6] = biological target: T5, Histone 2A citrulline-containing peptide 1 (human, also: biotin label); assay: peptide ELISA, 2 ug/well
T5 construct: also called AAASGXGKQGGK
T5 peptide: AAASG[Cit]GKQGGK
Experimental: as §1, with “Biotin and citrulline-containing peptides derived from histone 2A were immobilized on NEUTRAVIDIN®-coated 96-well ELISA plates (0.3 μg/well). CFC-1” for “CFC-1”, “controls respectively” for “controls, respectively,”, “binding.” for “binding. H1=recombinant histone 1; H1/p2=huPAD2 recombinant histone 1; H1/p4=huPAD4 recombinant histone 1 and so forth (x-axis).”
as §2

[7] = biological target: T6, Histone 2A citrulline-containing peptide 3 (human, also: biotin label); assay: peptide ELISA, 2 ug/well
T6 peptide: KSRSS[Cit]AGLQFP
Experimental: as §1, with “Biotin and citrulline-containing peptides derived from histone 2A were immobilized on NEUTRAVIDIN®-coated 96-well ELISA plates (0.3 μg/well). CFC-1” for “CFC-1”, “controls respectively” for “controls, respectively,”, “binding.” for “binding. H1=recombinant histone 1; H1/p2=huPAD2 recombinant histone 1; H1/p4=huPAD4 recombinant histone 1 and so forth (x-axis).”
as §2

[8] = biological target: T7, Histone 2A citrulline-containing peptide 4 (human, also: biotin label); assay: peptide ELISA, 2 ug/well
T7 peptide: QFPVG[Cit]VHRLLR
Experimental: as §1, with “Biotin and citrulline-containing peptides derived from histone 2A were immobilized on NEUTRAVIDIN®-coated 96-well ELISA plates (0.3 μg/well). CFC-1” for “CFC-1”, “controls respectively” for “controls, respectively,”, “binding.” for “binding. H1=recombinant histone 1; H1/p2=huPAD2 recombinant histone 1; H1/p4=huPAD4 recombinant histone 1 and so forth (x-axis).”
as §2

[9] = biological target: T8, Histone 2A citrulline-containing peptide 5 (human, also: biotin label); assay: peptide ELISA, 2 ug/well
T8 peptide: VGRVH[Cit]LLRKGN
Experimental: as §1, with “Biotin and citrulline-containing peptides derived from histone 2A were immobilized on NEUTRAVIDIN®-coated 96-well ELISA plates (0.3 μg/well). CFC-1” for “CFC-1”, “controls respectively” for “controls, respectively,”, “binding.” for “binding. H1=recombinant histone 1; H1/p2=huPAD2 recombinant histone 1; H1/p4=huPAD4 recombinant histone 1 and so forth (x-axis).”
as §2

[10] = biological target: T9, Histone 2A citrulline-containing peptide 6 (human, also: biotin label); assay: peptide ELISA, 2 ug/well
T9 peptide: VHRLL[Cit]KGNYSE
Experimental: as §1, with “Biotin and citrulline-containing peptides derived from histone 2A were immobilized on NEUTRAVIDIN®-coated 96-well ELISA plates (0.3 μg/well). CFC-1” for “CFC-1”, “controls respectively” for “controls, respectively,”, “binding.” for “binding. H1=recombinant histone 1; H1/p2=huPAD2 recombinant histone 1; H1/p4=huPAD4 recombinant histone 1 and so forth (x-axis).”
as §2

[11] = biological target: T10, Histone 2A citrulline-containing peptide 7 (human, also: biotin label); assay: peptide ELISA, 2 ug/well
T10 peptide: GNYSE[Cit]VGAGAP
Experimental: as §1, with “Biotin and citrulline-containing peptides derived from histone 2A were immobilized on NEUTRAVIDIN®-coated 96-well ELISA plates (0.3 μg/well). CFC-1” for “CFC-1”, “controls respectively” for “controls, respectively,”, “binding.” for “binding. H1=recombinant histone 1; H1/p2=huPAD2 recombinant histone 1; H1/p4=huPAD4 recombinant histone 1 and so forth (x-axis).”
as §2

[12] = biological target: T11, Histone 2A citrulline-containing peptide 8 (human, also: biotin label); assay: peptide ELISA, 2 ug/well
T11 peptide: AGNAA[Cit]DNKKTR
Experimental: as §1, with “Biotin and citrulline-containing peptides derived from histone 2A were immobilized on NEUTRAVIDIN®-coated 96-well ELISA plates (0.3 μg/well). CFC-1” for “CFC-1”, “controls respectively” for “controls, respectively,”, “binding.” for “binding. H1=recombinant histone 1; H1/p2=huPAD2 recombinant histone 1; H1/p4=huPAD4 recombinant histone 1 and so forth (x-axis).”
as §2

[13] = biological target: T12, Histone 2A citrulline-containing peptide 9 (human, also: biotin label); assay: peptide ELISA, 2 ug/well
T12 peptide: DNKKT[Cit]IIPRHL
Experimental: as §1, with “Biotin and citrulline-containing peptides derived from histone 2A were immobilized on NEUTRAVIDIN®-coated 96-well ELISA plates (0.3 μg/well). CFC-1” for “CFC-1”, “controls respectively” for “controls, respectively,”, “binding.” for “binding. H1=recombinant histone 1; H1/p2=huPAD2 recombinant histone 1; H1/p4=huPAD4 recombinant histone 1 and so forth (x-axis).”
as §2

[14] = biological target: T13, Histone 2A citrulline-containing peptide 10 (human, also: biotin label); assay: peptide ELISA, 2 ug/well
T13 peptide: TRIIP[Cit]HLQLAI
Experimental: as §1, with “Biotin and citrulline-containing peptides derived from histone 2A were immobilized on NEUTRAVIDIN®-coated 96-well ELISA plates (0.3 μg/well). CFC-1” for “CFC-1”, “controls respectively” for “controls, respectively,”, “binding.” for “binding. H1=recombinant histone 1; H1/p2=huPAD2 recombinant histone 1; H1/p4=huPAD4 recombinant histone 1 and so forth (x-axis).”
as §2

[15] = biological target: T14, Histone 2A citrulline-containing peptide 11 (human, also: biotin label); assay: peptide ELISA, 2 ug/well
T14 peptide: LQLAI[Cit]NDEELN
Experimental: as §1, with “Biotin and citrulline-containing peptides derived from histone 2A were immobilized on NEUTRAVIDIN®-coated 96-well ELISA plates (0.3 μg/well). CFC-1” for “CFC-1”, “controls respectively” for “controls, respectively,”, “binding.” for “binding. H1=recombinant histone 1; H1/p2=huPAD2 recombinant histone 1; H1/p4=huPAD4 recombinant histone 1 and so forth (x-axis).”
as §2

[16] = biological target: T15, Histone 2A citrulline-containing peptide 12 (human, also: biotin label); assay: peptide ELISA, 2 ug/well
T15 peptide: NKLLG[Cit]VTIAQG
Experimental: as §1, with “Biotin and citrulline-containing peptides derived from histone 2A were immobilized on NEUTRAVIDIN®-coated 96-well ELISA plates (0.3 μg/well). CFC-1” for “CFC-1”, “controls respectively” for “controls, respectively,”, “binding.” for “binding. H1=recombinant histone 1; H1/p2=huPAD2 recombinant histone 1; H1/p4=huPAD4 recombinant histone 1 and so forth (x-axis).”
as §2

CFC-1 [17] = biological target: T4, CFC-1; assay: peptide ELISA, 0.4 ug/well
Experimental: (§3) Biotin and citrulline-containing peptides derived from fibrinogen and vimentin were immobilized on NEUTRAVIDIN®-coated 96-well ELISA plates (0.3 μg/well). CFC-1 and CFC-0 were coated at the same concentration and served as positive and negative controls respectively for specific anti-citrulline reactivity and as coating controls. Non-coated wells were used to test for aspecific binding of the antibodies. […] Detection of bound anti-citrulline antibodies was performed by incubating the wells with rabbit-anti-human-HRP (1:2000) for one hour at RT followed by incubation with TMB substrate. The resulting OD (y-axis) is a measure for antibody binding.
(§4) Biotin-labeled and citrulline-containing fibrinogen and vimentin peptides (Table 5) were also tested for reactivity with the therapeutic antibodies. Peptides were coated on 96-well NEUTRAVIDIN®-ELISA plates.

msFibα XH = biological target: T16, msFibα XH (mouse, X at position 15 is citrulline; biotin label); assay: peptide ELISA, 0.4 ug/well
T16 peptide: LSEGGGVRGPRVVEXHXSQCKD
Experimental: as §3, §4

msFibα XG = biological target: T17, msFibα XG (mouse, X at position 8 is citrulline; biotin label); assay: peptide ELISA, 0.4 ug/well
T17 peptide: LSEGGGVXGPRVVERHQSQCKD
Experimental: as §3, §4

huFibα XH = biological target: T18, huFibα XH (human, X at position 15 is citrulline; biotin label); assay: peptide ELISA, 0.4 ug/well
T18 peptide: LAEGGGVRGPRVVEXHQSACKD
Experimental: as §3, §4

huFibα XG = biological target: T19, huFibα XG (human, X at position 8 is citrulline; biotin label); assay: peptide ELISA, 0.4 ug/well
T19 peptide: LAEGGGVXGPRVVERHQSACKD
Experimental: as §3, §4

msFibβ XG = biological target: T20, msFibβ XG (mouse, also: biotin label); assay: peptide ELISA, 0.4 ug/well
T20 peptide: EPTDSLDA[Cit]GHRPVDRR
Experimental: as §3, §4

msVim XS/XL = biological target: T21, msVim XS/XL (mouse, also: biotin label); assay: peptide ELISA, 0.4 ug/well
T21 construct: also called mouse vimentin peptide
T21 peptide: YVT[Cit]SSAV[Cit]L[Cit]SSVP
Experimental: as §3, §4

B1: RhmAb2.102 (antibody, human IgG1, lambda)
heavy: not shown
light: QSVLTQPPSMSAAPGQKVTISCSGSSSNIGNNYVSWYQQVPGTAPKLLIYDDNKRPSGIPGRFSGSKSATSATLGITGLQAGDEADYYCGSWDDNLSVVLFGGGTKLTVLGQPKAAPSVTLFPPSSEELQANKATLVCLISDFYPGAVTVAWKADSSPVKAGVETTTPSKQSNNKYAASSYLSLTPEQWKSHRSYSCQVTHEGSTVEKTVAPTECS
notes: Human IgG1 lambda; also called Rhm2.102
OD [1]: 0.06 OD
OD [2]: 1.96 OD
OD [3]: 0.493 OD
OD (CFC-1 [4]): 2.15 OD
OD (CFC-1 [5]): 3.21 OD
OD [6]: 3.05 OD
OD [7]: 0.286 OD
OD [8]: 1.3 OD
OD [9]: 0.111 OD
OD [10]: 0.752 OD
OD [11]: 0.059 OD
OD [12]: 0.06 OD
OD [13]: 0.063 OD
OD [14]: 0.07 OD
OD [15]: 0.067 OD
OD [16]: 0.067 OD
OD (CFC-1 [17]): 3.79 OD
OD (msFibα XH): 0.076 OD
OD (msFibα XG): 0.773 OD
OD (huFibα XH): 0.09 OD
OD (huFibα XG): 0.521 OD
OD (msFibβ XG): 1.67 OD
OD (msVim XS/XL): 1.45 OD
